For series [1], the target named is wild-type Tetrahymena thermophila MacNup98A (Mac98A) FG domain (Tetrahymena thermophila). Description: partition of fluorescent probes into FG particles (confocal laser scanning microscopy); FG particles mixed with permeation probes (2 μM Alexa488-labelled NTF2 and 10 μM mCherry in assay buffer, 15 μl + 15 μl); 20 mM NaPi pH 6.8, 150 mM NaCl, 5 mM DTT; 21 °C; partition coefficient = signal inside FG phase: signal in buffer.

Series [2] deals with the molecule itself. Put plainly: MAS NMR, 1H-13C cross-polarization of the FG phase; FG phase from u-[13C,15N]-labelled protein, 36 °C, 20 kHz MAS; cross-polarization against direct excitation.
The target in series [3] is T1, prf.GLFG_(52 × 12).
T1 construct: engineered from the Tetrahymena thermophila MacNup98A FG domain; plasmid pSNG064; Isotope-labelled (15N, 13C) for NMR; also called perfect repeat; source: E. coli, inclusion bodies, Ni(II) chelate column, tag cut off with bdSENP1 protease, lyophilized; not shown: His14-ZZ-scSUMO, N-terminal, cleaved
T1 chain: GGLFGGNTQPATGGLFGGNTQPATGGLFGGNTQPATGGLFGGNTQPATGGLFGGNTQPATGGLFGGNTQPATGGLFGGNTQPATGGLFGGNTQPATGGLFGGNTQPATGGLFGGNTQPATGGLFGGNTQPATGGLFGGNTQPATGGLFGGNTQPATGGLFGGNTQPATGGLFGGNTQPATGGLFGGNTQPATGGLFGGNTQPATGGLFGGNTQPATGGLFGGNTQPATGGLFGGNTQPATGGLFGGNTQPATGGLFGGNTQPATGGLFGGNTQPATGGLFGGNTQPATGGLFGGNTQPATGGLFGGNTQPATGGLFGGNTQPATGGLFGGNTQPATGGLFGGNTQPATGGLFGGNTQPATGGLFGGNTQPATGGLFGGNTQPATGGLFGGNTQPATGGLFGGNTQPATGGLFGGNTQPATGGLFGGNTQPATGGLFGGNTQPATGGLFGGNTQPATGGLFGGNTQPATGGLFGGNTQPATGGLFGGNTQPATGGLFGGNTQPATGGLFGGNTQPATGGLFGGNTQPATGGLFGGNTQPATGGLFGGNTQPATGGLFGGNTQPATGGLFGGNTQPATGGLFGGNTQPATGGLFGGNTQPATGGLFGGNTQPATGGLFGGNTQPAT
Put plainly: partition of Atto488-coupled FG domains into FG particles (confocal laser scanning microscopy); 20 μM unlabelled prf.GLFG_(52 × 12) premixed with 0.5 μM Atto488-labelled species (GAFG: 3 μM); 20 mM NaPi pH 6.8, 150 mM NaCl, 5 mM DTT; 21 °C; apparent partition coefficient = Atto488 signal IN: OUT of the FG particles. Conditions: both partners purified.

Take “nuclear transport receptor NTF2 (labelled with Alexa Fluor 488) (from UniProt P61970 1-127) (natural protein)”: in series [1], the partition coefficient worked out at 2000.

B1: Pro-free prf.GLFG_(52 × 12) (other)
chain: GGLFGGATNSQTGGLFGGATNSQTGGLFGGATNSQTGGLFGGATNSQTGGLFGGATNSQTGGLFGGATNSQTGGLFGGATNSQTGGLFGGATNSQTGGLFGGATNSQTGGLFGGATNSQTGGLFGGATNSQTGGLFGGATNSQTGGLFGGATNSQTGGLFGGATNSQTGGLFGGATNSQTGGLFGGATNSQTGGLFGGATNSQTGGLFGGATNSQTGGLFGGATNSQTGGLFGGATNSQTGGLFGGATNSQTGGLFGGATNSQTGGLFGGATNSQTGGLFGGATNSQTGGLFGGATNSQTGGLFGGATNSQTGGLFGGATNSQTGGLFGGATNSQTGGLFGGATNSQTGGLFGGATNSQTGGLFGGATNSQTGGLFGGATNSQTGGLFGGATNSQTGGLFGGATNSQTGGLFGGATNSQTGGLFGGATNSQTGGLFGGATNSQTGGLFGGATNSQTGGLFGGATNSQTGGLFGGATNSQTGGLFGGATNSQTGGLFGGATNSQTGGLFGGATNSQTGGLFGGATNSQTGGLFGGATNSQTGGLFGGATNSQTGGLFGGATNSQTGGLFGGATNSQTGGLFGGATNSQTGGLFGGATNSQTGGLFGGATNSQTGGLFGGATNSQT
notes: also called thioflavin-T-positive, proline-free variant of prf.GLFG_(52 × 12)
Take B1: the binding result in series [2] was “binds”.

B2: Atto488-coupled GLLG//L_(52 × 12) (other)
chain: GSGLLGNTGLAPAGGLLGNTQLQQGGGLLGQPQLTQGGGLLGQTGLTTGGGLLGGATLTAPGGLLGGGGLNPTGGLLGGNNLQQTGGLLGQGTLQTGGGLLGAPQLNQGGGLLGGGTLTTGGGLLGANTLTGGGGLLGGPSLPTTAGLLGSNNLTTGGGLLGQPALTNNGGLLGGQTLNQASGLLGANNLPPTNGLLGNNNLPQTAGLLGGATLTGNTGLLGGANLTGGGGLLGNNTLNPTGGLLGATNLAGGGGLLGGGALTGGGGLLGGGNLQTGGGLLGTANLTTAGGLLGGGNLQPQNGLLGNNNLPATGGLLGQTNLAAPQGLLGGTNLNAASGLLGQKPLSANGVLTKPNEKNLCYAISNGTDFCIFELALTQRKLVKAGQLKPGAQAGGLLGQPALNTQGGLLGGGGLATTPGLLGGAQLNTTGGLLGGQNLQAGGGLLGAPNLAAATGLLGAGNLNTQGGLLGAKPLATGGGLLGQPALTQAGGLLGNTALPAGGGLLGGATLTPGGGLLGGNTLATGGGLLGGNTLGATGGLLGGQQLNNQGGLLGNTNLNTGGGLLGGATLTTGGGLLGGSTLATGGGLLGGASLPAAGGLLGGAALQQNSGLLGGATLGQTGGLLGGATLQQGGGLLGQTALNPGGGLLGAANLTTQPGLLGGNNLAATTSC
modifications: Atto488 (coupled)
In the case of B2, the partition coefficient in series [3] worked out at 110.

The values are drawn from publication PMC8938434, “Atomic resolution dynamics of cohesive interactions in phase-separated Nup98 FG domains” (Nature Communications, 2022).
